Test results taken from patent US12064464B2, “Plantaricin NC8 alpha beta markedly enhances the effects of antibiotics” (priority 2018, dated 2024).

How the values were obtained:
[1] = system: S. epidermidis RP62A biofilms; test: Bacterial biofilm disruption; format: cell-based, Staphylococcus epidermidis; details: 1 h
Experimental: S. epidermidis RP62A was inoculated into 5 ml of LB broth and incubated on a shaker at 37° C. overnight. The bacterial culture was diluted 1:100 into fresh media and 100 μl of bacterial suspension per well was added in a 96-well microtiter plate and incubated statically at 37° C. for 20 h. The wells were washed three times by submerging the plate into a container with distilled water to remove unattached cells. Fresh LB media was added to each well (100 μl) followed by addition of the peptides in different concentrations. The plate was incubated statically for 1 h. Detached material in the wells were transferred to a new microtiter plate for absorbance measurements at 620 nm. The remaining attached biofilms were stained with 0.1% crystal violet for 15 min before the plate was washed four times in distilled water as mentioned above and allowed to dry at room temperature for 2 h. The crystal violet was solubilized in 30% acetic acid for 15 min and the absorbance quantified at 550 nm. Each experiment, with three replicates, was repeated three times.

S. epidermidis [2] = test: Broth microdilution MIC/MBC, strain not named; format: cell-based, Staphylococcus epidermidis
From the text: Staphylococcus aureus CCUG 35601 (MRSA, Culture Collection, University of Gothenburg) and Staphylococcus aureus ATCC 29213 (MSSA, ATCC, Manassas, VA). Staphylococcus epidermidis ATCC 12228 (ATCC, Manassas, VA), RP62A, N15 and 10 clinical isolates of Staphylococcus epidermidis that have previously been characterized. Isolated Escherichia coli, Enterococcus faecium (including VRE), Pseudomonas aeruginosa, Klebsiella pneumoniae, Enterobacter spp and Acinetobacter baumannii were obtained from Orebro University hospital. Isolated Streptococcus mutans, Streptococcus constellatus and Streptococcus anginosus were obtained from Malmo University. The bacteria were grown on Luria-Bertani (LB) agar plates, supplemented with 5% defibrinated horse blood, and incubated at 37° C. overnight. Single colonies were inoculated into 5 ml of LB broth and incubated on a shaker (300 rpm) at 37° C. overnight. The bacterial concentration was determined by viable count and adjusted to correlate with approximately 10^9 CFU/ml.
(§1) The broth microdilution method was used to determine minimal inhibitory concentration (MIC) and minimal bactericidal concentration (MBC). Two-fold serial dilutions of the peptides were used and the final concentrations ranged from 0.097-50 μM. […] The effect of bacteriocin-antibiotic combinations was accomplished by using the same concentration series of antibiotics with a constant concentration of PLNC8 αβ (3.1 μM) in all the wells. […] All experiments were repeated at least three times.

[3] = Fluorescence leakage assay (CF release from liposomes); details: after 2 min; both the L-form and D-form
Experimental: Liposomes were prepared by dry film formation, hydration and finally extrusion through a polycarbonate membrane to form monodisperse large unilamellar vesicles. […] A dry lipid film was formed by evaporation of the chloroform by nitrogen flow and overnight lyophilization. The film was hydrated with either 10 mM phosphate buffer (PB) pH 7 or 10 mM phosphate buffer saline (PBS) pH 7, and the solution was vortexed for 1 min and put on a shaker for 1 h before extruded 21 times through a 100 nm pore-sized polycarbonate membrane. For fluorescence leakage assay the lipid film was hydrated with buffer (PBS) containing self-quenching concentration (50 mM) of 5(6)-carboxyfluorescein (CF) (Sigma Aldrich) and liposomes were prepared as described above. Removal of unencapsulated CF was done by gel filtration using a PD-25 column (GE Healthcare, Uppsala, Sweden) and liposomes with encapsulated CF were eluted with PBS. Leakage of the liposome encapsulated fluorophore CF due to additions of the bacteriocins was recorded using a fluorescence plate reader (Infinite 200, Tecan, Austria) where λex=485 nm and λem=520 nm. CF was encapsulated at self-quenching concentration, and CF release results in an increased fluorescence signal. […] In order to estimate the maximum release from each sample a final addition of 0.5% Triton X-100 was made at the end of all measurements and the total amount of CF (100% release) was estimated after 15 min incubation. The CF release is presented as percentage release for each time interval (measurements taken every minute). The percentage CF release is calculated as 100×(F−F0)/(FT−F0) where F0 is the initial fluorescence intensity of CF before peptide addition, F is the fluorescence intensity of CF at time point t and FT is the maximum fluorescence after the addition of Triton X-100.

[4] = system: wounds infected with S. aureus; test: Porcine wound model; format: in vivo, pig; details: PLNC8αβ 50 μM, every other day, 7 days
From the text: Three wounds were created per condition with the following conditions: control (PBS), […]/gentamicin and […]8 αβ. […] The pig was returned to the pen and monitored during recovery from anesthesia. […] This procedure was repeated every other day for seven days (a total of four doses of treatment of the infected wounds).

S. epidermidis [5] = test: Aggregation and ATP release; format: cell-based, Staphylococcus epidermidis
Experimental: Aggregation and extracellular release of ATP were used to study the effects of PLNC8 αβ on the bacteria. ATP was registered using a luciferin/luciferase bioluminescence assay (Sigma, St. Louis, Mo, USA) in bacterial suspensions (2.5×10^8 CFU/ml). The bacteria were exposed to different concentrations of PLNC8 αβ, and real-time changes in light transmission and bioluminescence were recorded in a Chronolog lumi-aggregometer (Chrono-Log, Haverton, PA, USA) for 30 min. The levels of ATP were calculated based on the bioluminescence signals recorded in response to known concentrations of ATP.

[6] = references 1, 2; cited from earlier work
[7] = system: antibiotic resistant bacteria; test: Combination of PLNC8 αβ with antibiotics, summary over tested bacteria; format: cell-based; details: wide range of antibiotics
Experimental: as §1

[8] = system: Streptococcus spp (S. mutans, S. constellatus, S. anginosus); test: Sytox Green uptake (membrane permeabilization); format: cell-based; details: 5 μM, 2 min
Experimental: The fluorescent dye Sytox® Green, which can only cross damaged membranes and fluoresce upon binding to nucleic acids, was used to study the antimicrobial activity of PLNC8 αβ on S. epidermidis, S. aureus (MSSA, MRSA) and Streptococcus spp. The bacteria were washed and resuspended in Krebs-Ringer Glucose buffer (KRG) (120 mM NaCl, 4.9 mM KCl, 1.2 mM MgSO4, 1.7 mM KH2PO4, 8.3 mM Na2HPO4, and 10 mM glucose, pH 7.3) and incubated in the presence or absence of different combinations of PLNC8 αβ in 96-well microtiter plates for 2 min. Images were captured with Olympus BX41 at 40× magnification.

B1: PLNC8 αβ: two-peptide class IIb bacteriocin of L. plantarum NC8: PLNC8 α (SEQ ID NO 1) with PLNC8 β (SEQ ID NO 2) (peptide)
alpha: DLTTKLWSSWGYYLGKKARWNLKHPYVQF
beta: SVPTSVYTLGIKILWSAYKHRKTIEKSFNKGFYH
modifications: Lactobacillus plantarum NC8
- disruption of biofilms [1]: efficiently disrupted the biofilms and killed the bacteria
- decrease of MIC and MBC of gentamicin by the peptides (S. epidermidis [2]; S. epidermidis, FIG. 15): 15-30 fold
- decrease of MIC and MBC of rifampicin by the peptides (S. epidermidis [2]; S. epidermidis, FIG. 15): 100 fold
- decrease of MIC and MBC of vancomycin by the peptides (S. epidermidis [2]; S. epidermidis, FIG. 15): 2 fold
- inhibition of S. epidermidis isolated from PJIs (S. epidermidis [2]; incl. hGISE, FIG. 14): effectively inhibits different strains of S. epidermidis isolated from PJIs, including S. epidermidis (hGISE)
- lysis of liposomes [3]: complete lysis of liposomes after 2 min
- infection and wound healing in vivo [4]: inhibited infection and promoted wound healing in vivo
- release of ATP (bacterial lysis) (S. epidermidis [5]): dose-dependent release of ATP
- aggregation of bacteria (S. epidermidis [5]; low concentrations): bacteria aggregates when exposed to low concentrations
- cell proliferation [6]: stimulates cell proliferation
- enhancement of the effects of antibiotics [7]: 2-130 fold
- relative susceptibility of Streptococcus species [8]: S. constellatus and S. anginosus were more susceptible to PLNC8 αβ than S. mutans
